Kd data for 36 sequences are collected here from the Immune Epitope Database (IEDB).

Broadly, the Kd is the free concentration of one partner at which half of the binding sites on the other are occupied at equilibrium, for simple one-to-one binding.

For assay [1], the target named is HLA-B*18:01. Put plainly: IEDB peptide-MHC binding, purified MHC/direct/fluorescence; filed as Kd, often an IC50 or EC50 that approximates it; ≥ and ≤ were set here for values at or beyond the usual limits of such assays.
The target of assay [2] is HLA-B*40:01. The assay is described as above.
In assay [3] the target is HLA-A*02:01. Put plainly: IEDB peptide-MHC binding, purified MHC/competitive/radioactivity; filed as Kd, often an IC50 or EC50 that approximates it; ≥ and ≤ were set here for values at or beyond the usual limits of such assays.
Assay [4] has as its target HLA-A*02:06. Described as above.
The target in assay [5] is HLA-B*07:02. The description is as above.
The target of assay [6] is HLA-B*35:01. Described as above.
The target in assay [7] is HLA-B*51:01. The description is as above.
Assay [8] concerns the target HLA-B*53:01. The description is as above.
Assay [9] deals with HLA-B*54:01. Described as above.
For assay [10], the target named is HLA-A*02:02. The description is as above.
For assay [11], the target named is HLA-A*02:03. Described as above.
The target of assay [12] is HLA-A*68:02. Described as above.
Assay [13] deals with HLA-B*44:02. The experiment in a line: IEDB peptide-MHC binding, purified MHC/direct/fluorescence; filed as Kd, often an IC50 or EC50 that approximates it; ≥ and ≤ were set here for values at or beyond the usual limits of such assays.
The target in assay [14] is HLA-A*03:01. Put plainly: IEDB peptide-MHC binding, purified MHC/competitive/radioactivity; filed as Kd, often an IC50 or EC50 that approximates it; ≥ and ≤ were set here for values at or beyond the usual limits of such assays. To be noted: source organism: Vaccinia virus Copenhagen.
Assay [15] has as its target HLA-A*11:01. Described as above. To be noted: source organism: Vaccinia virus Copenhagen.
The target of assay [16] is HLA-A*31:01. The assay is described as above. To be noted: source organism: Vaccinia virus Copenhagen.
Assay [17] has as its target HLA-A*33:01. The assay is described as above. The note with it: source organism: Vaccinia virus Copenhagen.
The target of assay [18] is HLA-A*68:01. The description is as above. The note with it: source organism: Vaccinia virus Copenhagen.
For assay [19], the target named is HLA-A*26:01. The description is as above.
The mark [20] stands for this setting: source organism: Mammarenavirus lassaense.
[21] abbreviates: source organism: Vaccinia virus WR.
The mark [22] stands for this setting: source organism: Orthohantavirus dobravaense.
Where [23] appears, read: source organism: Lymphocytic choriomeningitis virus (strain Armstrong).
The mark [24] stands for this setting: source organism: Trypanosoma cruzi.
Setting [25] is: source organism: Lassa virus Josiah.
[26] abbreviates: source organism: Triticum aestivum.
Where [27] appears, read: source organism: Influenza A virus (A/duck/Guangxi/1586/2004(H5N1)).
[28] abbreviates: source organism: Human alphaherpesvirus 2.
Where [29] appears, read: source organism: Vaccinia virus Copenhagen.
The mark [30] stands for this setting: source organism: SARS coronavirus Tor2.
Where [31] appears, read: source organism: Mammarenavirus juninense.
Setting [32] is: source organism: Dengue virus 4 Philippines/H241/1956.
Setting [33] is: source organism: Orthohantavirus andesense.
Where [34] appears, read: source organism: Dengue virus 3 Sri Lanka/1266/2000.

For VENSPRASL, the Kd in assay [1] (setting [20]) stood at 552 nM; in assay [2] (setting [20]), 114 nM.
For the sequence NVSIPWTHK, in assay [3] (source organism: Hepatitis B virus subtype adw2), the Kd is ≥ 35000 nM.
Consider DMKKKMEDSV, for which the figures for the Kd in assay [3] (source organism: Homo sapiens) and in assay [4] (source organism: Homo sapiens) were 15000 nM and ≥ 72500 nM, respectively.
With EPSGNNYHI, the Kd in assay [5] (setting [21]) is 1420 nM; in assay [6] (setting [21]), ≥ 44300 nM; in [7] (setting [21]), 692 nM; in assay [8] (setting [21]), 20.3 nM; in [9] (setting [21]), 1580 nM.
On to ELNDRLAVYI, for which the dissociation constant Kd in assay [3] (source organism: Homo sapiens) was 1160 nM; in [10] (source organism: Homo sapiens), 134 nM; in [11] (source organism: Homo sapiens), 1220 nM; in [4] (source organism: Homo sapiens), ≥ 30400 nM; in assay [12] (source organism: Homo sapiens), 50.6 nM.
SEVTTCFFL: the Kd in assay [1] (setting [22]) stood at 48.5 nM; in [2] (setting [22]), 12.7 nM.
Turning to MPSLTMACM, the Kd worked out at 112 nM in [5] (setting [23]); 5.44 nM in [6] (setting [23]); 881 nM in assay [7] (setting [23]); 2160 nM in [8] (setting [23]); 1290 nM in assay [9] (setting [23]).
GITRPTTVV: the Kd in assay [3] (setting [24]) is ≥ 50700 nM; in assay [10] (setting [24]), 14000 nM; in [11] (setting [24]) it was 795 nM; in [4] (setting [24]) it was 6130 nM; in assay [12] (setting [24]), 3150 nM.
As to AVSGGLNTSV, in [3] (setting [25]), the Kd was ≥ 25000 nM.
Take QPQLPYPQPQL: the Kd in assay [5] (setting [26]) is 9630 nM; in assay [6] (setting [26]) it was ≥ 40700 nM; in assay [7] (setting [26]), 353 nM; in assay [8] (setting [26]), ≥ 63700 nM; in assay [9] (setting [26]) it was ≥ 63700 nM.
QLADETLLKV: the Kd in [10] (source organism: Homo sapiens) was 14 nM; in assay [4] (source organism: Homo sapiens), 61.4 nM; in assay [12] (source organism: Homo sapiens) it was 11900 nM.
As to SILRVGTLT, the Kd in assay [3] (setting [25]) is ≥ 25000 nM.
For the sequence REILTKTTV, the Kd in assay [1] (setting [27]) was 358 nM; in assay [2] (setting [27]), 4.9 nM; in assay [13] (setting [27]), ≥ 47800 nM.
APAWSRRTL: the Kd in assay [5] (setting [28]) is 0.19 nM; in [6] (setting [28]) it was 3240 nM; in assay [7] (setting [28]), ≥ 59500 nM; in assay [8] (setting [28]) it was 3550 nM; in assay [9] (setting [28]), 5560 nM.
As for LILSCIFAFI, the Kd in assay [10] (setting [29]) turned out to be 5.22 nM; in assay [11] (setting [29]), 19.9 nM; in [4] (setting [29]), 42.5 nM; in assay [14], 947 nM; in [15] it was 5710 nM; in assay [16], 254 nM. Moreover, the Kd in assay [17] is 1860 nM; in [18] it was 658 nM; in assay [12] (setting [29]), 17.5 nM; in [5] (setting [29]) it was ≥ 69600 nM; in assay [6] (setting [29]) it was ≥ 36600 nM; in assay [7] (setting [29]) it was 17200 nM. The figures for the Kd in assay [8] (setting [29]) and in assay [9] (setting [29]) were 1840 nM and 1520 nM, respectively.
In the case of VPWSKILAY, the dissociation constant (Kd) came to 447 nM in assay [5] (setting [30]); 8.22 nM in assay [6] (setting [30]); 90.5 nM in [7] (setting [30]); 7.08 nM in assay [8] (setting [30]); 536 nM in assay [9] (setting [30]).
As for TPENFSSLI, the Kd in assay [5] (setting [31]) is 8260 nM; in assay [6] (setting [31]), ≥ 38700 nM; in assay [7] (setting [31]), 1960 nM; in assay [8] (setting [31]) it was 1320 nM; in [9] (setting [31]) it was ≥ 78100 nM.
Turning to FPQVGGLTSI, the Kd in assay [5] (setting [30]) was found to be 162 nM; in assay [6] (setting [30]), 609 nM; in [7] (setting [30]), 76.8 nM; in [8] (setting [30]) it was 24 nM; in assay [9] (setting [30]), 25.7 nM.
For the sequence HTIENTSANL, the Kd in assay [19] (setting [32]) is ≥ 48900 nM; in [12] (setting [32]), 15 nM.
Turning to CPFLFLTVL, the Kd in assay [5] (setting [20]) is 99.5 nM; in [6] (setting [20]), 41.2 nM; in assay [7] (setting [20]), 746 nM; in [8] (setting [20]) it was 216 nM; in assay [9] (setting [20]), 160 nM.
For the sequence MPKDGLKVL, the Kd in assay [5] (setting [20]) was 802 nM; in assay [6] (setting [20]), 421 nM; in [7] (setting [20]), 6530 nM; in assay [8] (setting [20]), 2320 nM; in [9] (setting [20]), 96.5 nM.
Turning to GSFGDIYLA, the Kd in assay [3] (source organism: Homo sapiens) came out at 232 nM.
As to DPPIPYSRV, the Kd was ≥ 77500 nM in [5] (setting [21]); ≥ 53400 nM in assay [6] (setting [21]); 31 nM in assay [7] (setting [21]); ≥ 31500 nM in assay [8] (setting [21]); 320 nM in assay [9] (setting [21]).
For the sequence IPEISSNDNA, the dissociation constant Kd was ≥ 69600 nM in assay [5] (setting [21]); ≥ 69900 nM in assay [6] (setting [21]); ≥ 69600 nM in [7] (setting [21]); 2390 nM in [8] (setting [21]); 4540 nM in [9] (setting [21]).
For APKQVAGTGV, the Kd in assay [5] (setting [21]) is 10.9 nM; in assay [6] (setting [21]) it was ≥ 69900 nM; in assay [7] (setting [21]) it was ≥ 61000 nM; in assay [8] (setting [21]) it was ≥ 69900 nM; in assay [9] (setting [21]), 266 nM.
GIGILTVIL: the Kd in assay [3] (source organism: Homo sapiens) was found to be 1000 nM.
For the sequence GVLPLLLLYS, the Kd in assay [3] (setting [24]) amounted to 2370 nM; in assay [10] (setting [24]) it was 1300 nM; in [11] (setting [24]), 673 nM; in [4] (setting [24]) it was 14.9 nM; in [12] (setting [24]) it was 3560 nM.
In [1] (source organism: Salmonella enterica subsp. enterica serovar Paratyphi A str. ATCC 9150), DPLVIPFSF registered a Kd of 3130 nM.
In the case of YEGDLRVTF, the Kd in assay [1] (setting [33]) is ≤ 1 nM; in assay [2] (setting [33]), 8.3 nM; in assay [13] (setting [33]) it was 4300 nM.
For CPQKKKSQA, the equilibrium dissociation constant (Kd) was 105 nM in assay [5] (setting [21]); ≥ 77400 nM in assay [6] (setting [21]); ≥ 77500 nM in assay [7] (setting [21]); ≥ 78200 nM in assay [8] (setting [21]); 66.7 nM in [9] (setting [21]).
On to SQCQAIHNV, for which the Kd is 972 nM in assay [3] (setting [26]); 770 nM in [10] (setting [26]); 254 nM in assay [11] (setting [26]); 132 nM in assay [4] (setting [26]); 5790 nM in assay [12] (setting [26]).
As to ETYQLWTALV, the Kd turned out to be 56.6 nM in [19] (setting [34]) and 0.07 nM in [12] (setting [34]).
QLYKEQLAKL: the Kd in [3] (source organism: Homo sapiens) was 78 nM; in [10] (source organism: Homo sapiens), 4.63 nM; in assay [11] (source organism: Homo sapiens), 16.3 nM; in assay [12] (source organism: Homo sapiens), 7620 nM.
Consider EVALLRTYCI, for which the Kd in [19] (setting [32]) turned out to be 6170 nM; in assay [12] (setting [32]), 29.7 nM.
As for LPNVQFVDI, the Kd in assay [5] (setting [21]) amounted to 2710 nM; in assay [6] (setting [21]), 234 nM; in assay [7] (setting [21]) it was 32.2 nM; in assay [8] (setting [21]), 65.2 nM; in assay [9] (setting [21]), 16.8 nM.
Consider FLSHDFTLV, for which the Kd in assay [10] (setting [24]) came out at 0.0619 nM; in assay [11] (setting [24]) it was 0.142 nM; in assay [4] (setting [24]) it was 0.765 nM; in assay [12] (setting [24]), 636 nM.
